Measurements published in patent publication US6906033 (dated 2005).
Changes are numbered by the printed parent chain.

T1: human factor XIIa (human, UniProt P00748 20-615, biotinylated with Biotin Ester (Zymed); sites not stated)
T1 chain: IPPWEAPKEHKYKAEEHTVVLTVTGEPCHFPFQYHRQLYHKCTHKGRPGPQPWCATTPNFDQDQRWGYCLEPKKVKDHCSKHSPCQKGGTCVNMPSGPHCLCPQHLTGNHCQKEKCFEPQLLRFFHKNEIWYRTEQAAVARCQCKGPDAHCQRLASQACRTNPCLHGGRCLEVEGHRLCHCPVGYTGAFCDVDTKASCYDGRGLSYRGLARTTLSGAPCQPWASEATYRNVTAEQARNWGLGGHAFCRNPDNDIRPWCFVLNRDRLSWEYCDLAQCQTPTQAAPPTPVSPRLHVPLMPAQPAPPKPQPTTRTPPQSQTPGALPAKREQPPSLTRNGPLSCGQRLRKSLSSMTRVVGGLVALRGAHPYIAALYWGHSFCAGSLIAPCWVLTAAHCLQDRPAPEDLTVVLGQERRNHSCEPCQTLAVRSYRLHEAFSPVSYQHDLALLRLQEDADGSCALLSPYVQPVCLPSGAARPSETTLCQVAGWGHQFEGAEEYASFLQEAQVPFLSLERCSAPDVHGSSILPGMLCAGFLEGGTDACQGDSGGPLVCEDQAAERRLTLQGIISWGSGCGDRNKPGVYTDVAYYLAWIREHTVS

T2: human factor Xa (human, UniProt P00742 41-179; P00742 235-488)
T2 chain 1: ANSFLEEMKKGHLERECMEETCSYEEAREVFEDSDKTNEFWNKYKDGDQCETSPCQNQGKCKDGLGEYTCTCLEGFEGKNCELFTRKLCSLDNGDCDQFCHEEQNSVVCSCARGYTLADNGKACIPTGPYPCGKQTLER
T2 chain 2: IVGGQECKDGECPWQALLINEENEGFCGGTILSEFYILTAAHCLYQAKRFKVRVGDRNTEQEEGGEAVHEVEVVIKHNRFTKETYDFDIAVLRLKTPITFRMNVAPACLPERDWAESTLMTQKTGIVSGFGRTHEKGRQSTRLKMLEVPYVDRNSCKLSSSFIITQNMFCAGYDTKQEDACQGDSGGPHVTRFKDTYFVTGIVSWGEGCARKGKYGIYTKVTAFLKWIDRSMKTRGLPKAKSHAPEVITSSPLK

B1: TW118 (protein)
chain: EVCSEQAETGPCRAMISRWYFDVTEGKCAPFFYGGCRGNRNNFDTEEYCMAVCGSAI
B2: TW6209 (protein)
chain: EVVREVCSEQAETGPCRAMISHWYFDVTEGKCAPFFYGGCGGNRNNFDTEEYCMAVCGSAI
B3: TW6157 (protein)
chain: B2 chain with H22R, G41S
B4: TW6154 (protein)
chain: B2 chain with H22R, G41L
B5: TW6142 (protein)
chain: B2 chain with H22R, F36V
B6: TW6147 (protein)
chain: B2 chain with H22R, G41A
B7: TW6138 (protein)
chain: B2 chain with H22R, G41K
B8: TW122 (protein)
chain: B1 chain with R37G, G38A
B9: BG002 (protein)
chain: B2 chain with M19L, I20L, H22R
B10: TW6153 (protein)
chain: B2 chain with H22R, G41I
B11: TW6159 (protein)
chain: B2 chain with H22R, G41V
B12: TW6178 (protein)
chain: B2 chain with H22R, G42R
B13: TW6139 (protein)
chain: B2 chain with H22R, G41H
B14: TW6161 (protein)
chain: B2 chain with H22R, G41Y
B15: DD129 (protein)
chain: B2 chain with M19L, I20F, H22R
B16: DD101 (protein)
chain: B2 chain with H22R, G41D
B17: TW6151 (protein)
chain: B2 chain with H22R, G41E
B18: TW6173 (protein)
chain: B2 chain with M19A, I20H, H22R
B19: TW6174 (protein)
chain: B2 chain with M19L, I20H, H22R
B20: BG031 (protein)
chain: B2 chain with T13V, H22R
B21: BG032 (protein)
chain: B2 chain with T13S, H22R
B22: DD112 (protein)
chain: B2 chain with M19V, H22R
B23: TW6179 (protein)
chain: B2 chain with M19G, H22R
B24: TW6208 (protein)
chain: B2 chain with A18G, H22R
B25: TW6202 (protein)
chain: B2 chain with M19G, S21W, H22R
B26: TW6203 (protein)
chain: B2 chain with M19G, S21P, H22R
B27: DD113 (protein)
chain: B2 chain with M19L, S21P, H22R
B28: TW6190 (protein)
chain: B2 chain with M19A, H22R, G41Y
B29: TW6169 (protein)
chain: B2 chain with M19L, S21L, H22R
B30: TW6201 (protein)
chain: B2 chain with M19G, S21Y, H22R
B31: BG003 (protein)
chain: B2 chain with I20L, S21H, H22R
B32: DD114 (protein)
chain: B2 chain with M19A, H22R, G41R
B33: TW6183 (protein)
chain: B2 chain with I20H, S21F, H22R
B34: TW6204 (protein)
chain: B2 chain with M19A, H22A
B35: TW6184 (protein)
chain: B2 chain with I20H, S21Y, H22R
B36: TW6205 (protein)
chain: B2 chain with M19L, H22A
B37: TW6175 (protein)
chain: B2 chain with M19L, S21F, H22R

What follows are binders tested against T3, human plasma kallikrein (human, UniProt P03952 20-638) (assay: enzyme inhibition).
T3 sequence (P03952 20-638): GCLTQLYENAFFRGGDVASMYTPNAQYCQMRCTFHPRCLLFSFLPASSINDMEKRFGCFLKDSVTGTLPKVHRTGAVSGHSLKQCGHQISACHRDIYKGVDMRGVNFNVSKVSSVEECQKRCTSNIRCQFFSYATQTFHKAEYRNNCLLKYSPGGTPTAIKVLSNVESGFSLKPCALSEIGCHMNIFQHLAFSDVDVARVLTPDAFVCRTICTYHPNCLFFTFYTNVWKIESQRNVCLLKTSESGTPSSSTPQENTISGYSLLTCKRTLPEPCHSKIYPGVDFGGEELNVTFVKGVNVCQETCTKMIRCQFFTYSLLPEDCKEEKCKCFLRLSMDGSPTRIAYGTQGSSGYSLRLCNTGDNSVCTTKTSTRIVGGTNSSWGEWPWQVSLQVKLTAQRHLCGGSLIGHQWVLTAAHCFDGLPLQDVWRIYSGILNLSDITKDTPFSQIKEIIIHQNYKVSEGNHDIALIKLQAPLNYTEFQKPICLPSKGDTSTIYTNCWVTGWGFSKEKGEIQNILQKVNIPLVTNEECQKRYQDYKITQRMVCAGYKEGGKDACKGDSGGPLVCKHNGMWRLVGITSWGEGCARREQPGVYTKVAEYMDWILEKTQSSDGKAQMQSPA
B1 was tested, and the Ki was 6 nM. In the case of B2, the Ki is reported as 81 nM. B3 showed a Ki of 40 nM. Binder B4 has a Ki of 11 nM. Work on B5 yielded a Ki of 18 nM. For B6, the Ki was 35 nM. Binder B7 has a Ki of 18 nM.

Molecular target: T1, human factor XIIa
Experiment: enzyme inhibition
B1 was tested, and the Ki was 13000 nM. With B2 the Ki was 184 nM. In the case of B3, the Ki is reported as 511 nM. B4 gave a Ki of 915 nM. With B5 the Ki was 7970 nM. For B6, the Ki was 1090 nM. For B7, the Ki was 921 nM.

Molecular target: T2, human factor Xa
Experiment: enzyme inhibition
Binder B1 has a Ki of 68 nM. For B2, the Ki was 613 nM. B3 showed a Ki of 168 nM. Work on B4 yielded a Ki of 39 nM. Binder B5 has a Ki of 225 nM. In the case of B6, the Ki is reported as 179 nM. B7 showed a Ki of 309 nM.

Molecular target: T3, human plasma kallikrein
Experiment: enzyme inhibition
Remark: another data set of the same source
For B8, the Ki was 32 nM. B9 showed a Ki of 0.98 nM. B10 gave a Ki of 11.2 nM. Binder B11 has a Ki of 17 nM. In the case of B12, the Ki is reported as 16 nM. Binder B13 has a Ki of 19 nM. Work on B14 yielded a Ki of 7.5 nM. Work on B15 yielded a Ki of 3.6 nM. In the case of B16, the Ki is reported as 64 nM. For B17, the Ki was 163 nM.

Molecular target: T1, human factor XIIa
Experiment: enzyme inhibition
Remark: another data set of the same source
B18 gave a Ki of 1430 nM. B9 was tested, and the Ki was 403 nM. For B10, the Ki was 65 nM. B12 gave a Ki of 444 nM. Binder B13 has a Ki of 152 nM. B19 showed a Ki of 2800 nM. Binder B14 has a Ki of 1510 nM. With B15 the Ki was 1860 nM. With B16 the Ki was 924 nM. Work on B17 yielded a Ki of 1160 nM.

Molecular target: T2, human factor Xa
Experiment: enzyme inhibition
Remark: another data set of the same source
Work on B8 yielded a Ki of 581 nM. For B9, the Ki was 60 nM. With B10 the Ki was 36 nM. Binder B11 has a Ki of 64 nM. With B13 the Ki was 78 nM. B14 gave a Ki of 8.7 nM. B15 showed a Ki of 6 nM. B17 was tested, and the Ki was 954 nM.

Molecular target: T3, human plasma kallikrein
Experiment: enzyme inhibition
Remark: another data set of the same source
B20 gave a Ki of 34 nM. For B21, the Ki was 49 nM. Binder B22 has a Ki of 6.8 nM. B23 gave a Ki of 78 nM.

Molecular target: T1, human factor XIIa
Experiment: enzyme inhibition
Remark: another data set of the same source
For B20, the Ki was 498 nM. Binder B21 has a Ki of 731 nM. Binder B22 has a Ki of 998 nM. With B23 the Ki was 368 nM. With B24 the Ki was 369 nM.

Molecular target: T3, human plasma kallikrein
Experiment: enzyme inhibition
Remark: another data set of the same source
Work on B25 yielded a Ki of 128 nM. B26 showed a Ki of 31.2 nM. Binder B27 has a Ki of 0.85 nM. With B28 the Ki was 0.83 nM. B29 gave a Ki of 1.2 nM. Work on B30 yielded a Ki of 34.6 nM. Binder B31 has a Ki of 36 nM. Binder B32 has a Ki of 0.7 nM.

Molecular target: T1, human factor XIIa
Experiment: enzyme inhibition
Remark: another data set of the same source
In the case of B25, the Ki is reported as 1240 nM. Binder B26 has a Ki of 5040 nM. With B33 the Ki was 12400 nM. B27 showed a Ki of 293 nM. Work on B28 yielded a Ki of 589 nM. In the case of B29, the Ki is reported as 619 nM. Binder B34 has a Ki of 147 nM. B35 showed a Ki of 14000 nM. In the case of B30, the Ki is reported as 419 nM. With B36 the Ki was 195 nM. B31 was tested, and the Ki was 467 nM. Binder B37 has a Ki of 35 nM. B32 gave a Ki of 224 nM.

Molecular target: T2, human factor Xa
Experiment: enzyme inhibition
Remark: another data set of the same source
For B33, the Ki was 159 nM. In the case of B27, the Ki is reported as 74 nM. Work on B28 yielded a Ki of 1400 nM. B29 was tested, and the Ki was 111 nM. With B34 the Ki was 87 nM. Binder B35 has a Ki of 214 nM. With B36 the Ki was 29 nM. B37 showed a Ki of 56 nM.
